# Assay results from patent publication US7514069B2, “Tumor-targeted optical contrast agents” (Mallinckrodt Inc., priority 2000, dated 2009).
# How the values were obtained:
# [1] = system: pancreatic acinar carcinoma (CA20948); assay: Imaging of individual organs removed from CA20948 tumor-bearing rat; type: in vivo; conditions: organs removed about 24 hours post administration
# Method: Individual organs were removed at about 24 hours post Cytate 1 administration and imaged.
# [2] = Monitoring of the blood clearance profile of peptide-dye conjugates; type: in vivo, Sprague-Dawley or Fischer 344 rats; conditions: bolus injection in lateral tail vein; monitored at 830 nm after excitation at 780 nm
# Description: A laser of appropriate wavelength for excitation of the dye chromophore was directed into one end of a fiber optic bundle and the other end was positioned a few millimeters from the ear of a rat. A second fiber optic bundle was also positioned near the same ear to detect the emitted fluorescent light and the other end was directed into the optics and electronics for data collection. An interference filter (IF) in the collection optics train was used to select emitted fluorescent light of the appropriate wavelength for the dye chromophore.
# Sprague-Dawley or Fischer 344 rats were used in these studies. The animals were anesthetized with urethane administered via intraperitoneal injection at a dose of 1.35 g/kg body weight. After the animals had achieved the desired plane of anesthesia, a 21 gauge butterfly with 12″ tubing was placed in the lateral tail vein of each animal and flushed with heparinized saline. The animals were placed onto a heating pad and kept warm throughout the entire study. […]
# Incident laser light delivered from the fiber optic was centered on the affixed ear. Data acquisition was then initiated, and a background reading of fluorescence was obtained prior to administration of the test agent. […] The data were analyzed using a standard sigma plot software program for a one compartment model.
# [3] = system: pancreatic acinar carcinoma expressing the SST-2 receptor (CA20948); assay: In vivo fluorescence imaging of rat pancreatic acinar carcinoma (CA20948); design: species or system Lewis rat
# Description: (§1) A non-invasive in vivo fluorescence imaging apparatus was employed to assess the efficacy of contrast agents developed for tumor detection in animal models. A LaserMax Inc. laser diode of nominal wavelength 780 nm and nominal power of 40 mW was used. The detector was a Princeton Instruments model RTE/CCD-1317-K/2 CCD camera with a Rodenstock 10 mm F2 lens (stock #542.032.002.20) attached. An 830 nm interference […] (CVI Laser Corp., part # F10-830-4-2) was mounted in front of the CCD input lens such that only emitted fluorescent light from the contrast agent was imaged. Typically, an image of the animal was taken pre-injection of contrast agent. This image was subsequently subtracted (pixel by pixel) from the post injection images. However, the background subtraction was […] done once the animal had been removed from the sample area and returned at a later time for images taken several hours post injection.
# The imaging apparatus and the procedure used are described in Example 12. Rat pancreatic acinar carcinoma expressing the SST-2 receptor (CA20948) was induced by solid implant technique in the left flank area, and palpable masses were detected nine days post implant. The images obtained at 2 and 30 minutes post injection are shown in FIG. 7E-F. FIGS. 7E-F are images of a rat with an induced pancreatic acinar carcinoma (CA20948) expressing the SST-2 receptor imaged at two minutes (FIG. 7E) and 30 minutes (FIG. 7F) post injection.
# The imaging apparatus and the procedure used are described in Example 12 except that each animal received 500 μl of a 1.0 mg/mL solution of Cytate 1 solution of 25% dimethylsulfoxide in water.
# Rat pancreatic acinar carcinoma expressing the SST-2 receptor (CA20948) were induced by solid implant technique in the left flank area, and palpable masses were detected 24 days post implant. Images were obtained at various times post injection.
# Cytate 1 was evaluated in the CA20948 Lewis rat model. […] At 27 hours post injection, the animal was again imaged (FIG. 9B).
# [4] = system: DSL 6A tumors; assay: In vivo fluorescence imaging of pancreatic ductal adenocarcinoma (DSL 6A); design: species or system male Lewis rats
# Description: as §1
# DSL 6A tumors were induced in male Lewis rats in the left flank area by the introduction of material from a solid (donor) implant and the tumors were palpable in approximately 14 days. The animals were anesthetized with xylazine; ketamine; acepromazine 1.5:1.5:0.5 at 0.8 mL/kg via intramuscular injection. The area of the tumor (left flank) was shaved to expose tumor and surrounding surface area. […]
# [5] = system: Prostrate tumors (Dunning R3327-H); assay: In vivo fluorescence imaging of prostatic carcinoma (R3327-H); design: species or system young male Copenhagen rats
# Description: as §1
# The imaging apparatus and the procedure used are described as in Example 12. Prostrate tumors (Dunning R3327-H) were induced in young male Copenhagen rats in the left flank area from a solid implant. These tumors grow very slowly and palpable masses were present 4-5 months post implant. FIGS. 7C-D are images of a rat with an induced prostatic carcinoma tumor (R3327-H) imaged at two minutes (FIG. 7C) and 30 minutes (FIG. 7D) post injection.
# [6] = 500 μl of 1.0 mg/mL solution in 25% dimethylsulfoxide in water, CA20948 tumor
SMILES,organ uptake: adrenals [1],organ uptake: heart [1],organ uptake: liver [1],organ uptake: muscle [1],organ uptake: pancreas [1],organ uptake: spleen [1],organ uptake: tumor tissue [1],fluorescence signal in blood (ear) after bolus injection [2],"time at which uptake into the tumor was maximal [3, 6]","time at which uptake into the tumor was seen [3, 6]",uptake at 45 minutes in rats with the CA20948 tumor cell line ([3]; 45 minutes post injection),"localization of dye in the tumor ([3]; 45 minutes post injection, CA20948 Lewis rat model)","tumor visualization ([3]; 27 hours post injection, CA20948 Lewis rat model)","persistence of dye fluorescence in the tumor ([3]; CA20948 tumor, post-injection)","dye intensity in the tumor ([4]; 30 minutes post-ICG injection, bolus injection of 0.5 ml aqueous solution of ICG, DSL 6A tumor)","perfusion of the agent into the tumor ([4]; DSL 6/A (pancreatic) tumor line, CCD camera)","dye intensity in the tumor ([5]; 30 minutes post-ICG injection, R3327-H tumor)","perfusion of the agent into the tumor ([5]; Dunning R3327H (prostate) tumor line, CCD camera)","dye intensity in the tumor ([3]; 30 minutes post-ICG injection, CA20948 tumor)","perfusion of the agent into the tumor ([3]; CA20948 (pancreatic) tumor line, CCD camera)"
"C[C@@H](O)[C@H](NC(=O)[C@@H]1CSSC[C@H](NC(=O)[C@@H](Cc2ccccc2)NC(=O)CCN2C(=CC=CC=CC=CC3=[N+](CCC(=O)O)c4ccc5ccccc5c4C3(C)C)C(C)(C)c3c2ccc2ccccc32)C(=O)N[C@@H](Cc2ccc(O)cc2)C(=O)N[C@H](Cc2c[nH]c3ccccc23)C(=O)N[C@@H](CCCCN)C(=O)N[C@@H]([C@@H](C)O)C(=O)N1)C(=O)O [Cytate 1, monoOctreotate-Bisethylcarboxymethylindocyanine dye]",high uptake,significantly lower uptake,significantly lower uptake,significantly lower uptake,high uptake,significantly lower uptake,high uptake,rapidly increased to a peak value. The signal then decayed as a function of time,about five,two,still quite intense,localization of this dye was observed in the tumor,Tumor visualization was easily observed,remained intense in the tumor for several hours,,,,,,
"C[C@@H](O)[C@H](NC(=O)[C@@H]1CSSC[C@H](NC(=O)[C@@H](Cc2ccccc2)NC(=O)CCN2C(=CC=CC=CC=CC3=[N+](CCC(=O)N[C@H](Cc4ccccc4)C(=O)N[C@H]4CSSC[C@@H](C(=O)N[C@H](C(=O)O)[C@@H](C)O)NC(=O)[C@H]([C@@H](C)O)NC(=O)[C@H](CCCCN)NC(=O)[C@@H](Cc5c[nH]c6ccccc56)NC(=O)[C@H](Cc5ccc(O)cc5)NC4=O)c4ccc5ccccc5c4C3(C)C)C(C)(C)c3c2ccc2ccccc32)C(=O)N[C@@H](Cc2ccc(O)cc2)C(=O)N[C@H](Cc2c[nH]c3ccccc23)C(=O)N[C@@H](CCCCN)C(=O)N[C@@H]([C@@H](C)O)C(=O)N1)C(=O)O [Cytate 2, bisOctreotate-Bisethylcarboxymethylindocyanine dye]",,,,,,,,rapidly increased to a peak value. The signal then decayed as a function of time,,,,,,,,,,,,
"CC1(C)C(/C=C/C=C/C=C/C=C2\N(CCCCS(=O)(=O)O)c3ccc4ccccc4c3C2(C)C)=[N+](CCCCS(=O)(=O)[O-])c2ccc3ccccc3c21 [ICG, indocyanine green]",,,,,,,,,,,mostly cleared,,,,considerably diminished,slow perfusion of the agent over time into the tumor,considerably diminished,slow perfusion of the agent over time into the tumor,considerably diminished and almost absent,only a slight but transient perfusion that was absent after only 30 minutes post injection
